Measurements as given in article PMC2869534.

System: SNF2h (human)
Test: Cy3 fluorescence intensity titration

Substance | K half | binding signal (fold lower K1/2 than apo)
0-601-78 nucleosome, Cy3 | 353 nM | –
0-601-40 nucleosome, Cy3 | – | 3
